Laboratory results as given in patent US20220396627A1 (VERSEAU THERAPEUTICS, published 2022).

B1: 13H10 mouse/human chimeric antibody (human IgG4 S228P, kappa) (antibody, V domains shown)
VH: QVQLQQPGAELVKPGASVKLSCKASGYTFTSYWMYWVKQRPGQGLDLIGEINPSNGGTNYNEKFKSKATLTVDKSSGTAYMQLSSLTSEDSAVYYCAIWKDYYGISYEDWYFDVWGTGTTVTVSS
VL: DILLTQSPAILSVSPGERVSFSCRASQSIGTSIHWYQQRTNGSPRLLIKYASESISGIPSRFSGSGSGTDFTLSINSVESEDIADYYCQQSNSWPLTFGAGTKLELKR
notes: 13H10 is deposited as ATCC PTA-125944
B2: 3L02 mouse/human chimeric antibody (human IgG4 S228P, kappa) (antibody, V domains shown)
VH: DVQLQESGPGMVKPSQSLSLTCTVTGYSITSGYDWHWIRHFPGNKLEWMGYISYSAGTNYNPSLKSRISITHDTSKNHFFLKLNSVTTEDTATYYCAREGLTAYWYFDVWGTGTTVTVSS
VL: DIVMTQSQKFMSTSVGDRVSVTCKASQTVGTNVAWYQQKPGQSPKPLIYSASYRYSGVPDRFTGSGSGTDFTLTISNVQSEDLAEYFCQQYDSFPLTFGSGTKLEIKR
B3: 13J19 mouse/human chimeric antibody (human IgG4 S228P, kappa) (antibody, V domains shown)
VH: QVQLKESGPGLVAPSQSLSITCTVSGFSLTSYGVSWVRQPPGKGLEWLGVVWRDGTTNYHSALISRLSISKDNSKSQVFLKLNSLQTDDTATYYCARPYYGFFDYWGQGTTLTVSS
VL: SIVMTQTPKFLLVSAGDRVTVTCKASQSVSNAVAWYQQKPGQSPKLLIYYASNRYTGVPDRFTGSGYGTDFTFTISTVQAEDLAVYFCQQNYNSPYTFGGGTKLEIKR
notes: 13J19 is deposited as ATCC PTA-125945
B4: 2E23 (antibody, V domains shown)
VH: QVQLQQPGAELVKPGASVKLSCKASGYTFTSYWMHWVKQRPGQGLEWIGEINPSNGGTNYNEKFKSKATLTVDKSSSTAYMQLSSLTSEDSAVYYCTIYYGDYSYPIDYWGQGTSVTVSS
VL: QIVLTQSPAIMSASPGEKVTLTCSASSSVSSSYLYWYQQKPGSSPKLWIYSTSNLASGVPTRFSGSGSGTSYCLTISSMETEDAASYFCHQYSSYPFTFGSGTKLEIK

How the values were obtained:
[1] = target: T1, Recombinant cyno Siglec-9-His (cynomolgus macaque); test: BLI (Octet Red384), chimeric antibody on AHC sensor, His-tagged analyte
T1 construct: also called Cynomolgus Monkey SIGLEC9-HIS
Description: (§1) The binding affinity of chimeric antibodies was determined by biolayer interferometry (BLI), using a ForteBio Octet Red384 system. All samples were prepared in black 96-well flat bottom plates (Greiner, Cat. #655209) diluted in kinetics buffer (lx DPBS (Gibco, Cat. #LS14190250) containing 0.1% bovine serum albumin, 0.05% sodium azide, and 0.02% Tween®20). Anti-SIGLEC-9 antibodies (ligand) were diluted to a final concentration of 10 ug/mL and captured on anti-human IgG Fc capture (AHC) biosensors (ForteBio, Cat. #18-5060). […] Biosensors were rehydrated prior to the assay in kinetics buffer for 10 minutes and then equilibrated in kinetics buffer for 60 seconds. Antibody was then immobilized for 300 seconds followed by a 120 second baseline wash in fresh kinetics buffer, 300 second analyte association, and 300 second dissociation in the same buffer wells as the baseline wash step. All assay steps occurred at 30° C. with an acquisition rate of 5.0 Hz
(§2) Processing parameters included double reference subtraction, with human IgG4 used as an isotype control for reference sensor subtraction and immobilized ligand in kinetics buffer with no analyte used for reference sample subtraction. Y-axis data was aligned to the average baseline step for the last 5 seconds and all steps were inter-step corrected to the start of the dissociation step. High frequency noise was removed using Savitzky-Golay filtering and final fitting was a 1:1 global binding model to both association and dissociation.

[2] = target: T2, Recombinant human Siglec-7-His (human, UniProt Q9Y286 19-353, limits assumed); test: as above
Description: as §1, §2

[3] = target: T3, Recombinant human Siglec-9-His (human, UniProt Q9Y336 18-348); test: BLI (Octet Red384), chimeric antibody on AHC sensor, His-tagged analyte 100-1.56 nM, 1:1 global fit
T3 construct: The entry begins at QTSK... like the Q18-G348 extracellular domain of the Fc fusion and ends in GSG and a His tag
Description: as §1, §2

[4] = target: T1, Recombinant cyno Siglec-9-His; test: as above
Description: as §1, §2

[5] = target: T2, Recombinant human Siglec-7-His; test: as above
Description: as §1, §2

[6] = target: Human Siglec-9-Fc (recombinant human Siglec-9 extracellular domain Q18-G348 fused to human IgG1 Fc) (human); test: ELISA: plate coated with 1 ug/mL human Siglec-9-Fc, antibody at 100 nM, HRP anti-mouse Fc secondary, RLU
Description: ELISA plates (384-well) were coated with 1 ug/mL indicated SIGLEC protein at room temperature. The plates were washed with PBS with 0.1% Tween®20, pH 7.4 and blocked with TBS containing 3% BSA. The plates were washed and incubated with anti-SIGLEC9 antibody diluted to 100 nM. Plates were washed and incubated with HRP-coupled anti-mouse Fc secondary antibody. Plates underwent a final wash and were incubated with HRP substrate. Readout was performed using a POLARstar Omega Microplate Reader (BMG LAPTECH).

T1 sequence (chain, as listed by the source limits assumed): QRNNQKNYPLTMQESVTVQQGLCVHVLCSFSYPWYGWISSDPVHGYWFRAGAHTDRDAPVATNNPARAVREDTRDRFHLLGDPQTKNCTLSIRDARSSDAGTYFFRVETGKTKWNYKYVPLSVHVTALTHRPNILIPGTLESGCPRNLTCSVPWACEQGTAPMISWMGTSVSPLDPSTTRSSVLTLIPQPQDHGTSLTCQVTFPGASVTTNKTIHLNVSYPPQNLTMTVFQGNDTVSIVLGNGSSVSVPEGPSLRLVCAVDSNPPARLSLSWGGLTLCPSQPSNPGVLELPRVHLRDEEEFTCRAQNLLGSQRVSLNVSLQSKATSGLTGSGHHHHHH
T3 sequence (Q9Y336 other isoform, or with tags, fused parts or gaps limits assumed): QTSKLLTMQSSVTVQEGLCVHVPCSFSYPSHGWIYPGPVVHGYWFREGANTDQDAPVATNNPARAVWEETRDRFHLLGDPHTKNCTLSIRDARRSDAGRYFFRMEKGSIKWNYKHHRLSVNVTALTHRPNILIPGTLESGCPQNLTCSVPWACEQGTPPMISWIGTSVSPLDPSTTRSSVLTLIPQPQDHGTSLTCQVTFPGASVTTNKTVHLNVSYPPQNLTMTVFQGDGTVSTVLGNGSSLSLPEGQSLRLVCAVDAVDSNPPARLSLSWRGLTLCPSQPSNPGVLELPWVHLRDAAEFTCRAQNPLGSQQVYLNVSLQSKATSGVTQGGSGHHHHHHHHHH
T2 sequence (Q9Y286 19-353 limits assumed): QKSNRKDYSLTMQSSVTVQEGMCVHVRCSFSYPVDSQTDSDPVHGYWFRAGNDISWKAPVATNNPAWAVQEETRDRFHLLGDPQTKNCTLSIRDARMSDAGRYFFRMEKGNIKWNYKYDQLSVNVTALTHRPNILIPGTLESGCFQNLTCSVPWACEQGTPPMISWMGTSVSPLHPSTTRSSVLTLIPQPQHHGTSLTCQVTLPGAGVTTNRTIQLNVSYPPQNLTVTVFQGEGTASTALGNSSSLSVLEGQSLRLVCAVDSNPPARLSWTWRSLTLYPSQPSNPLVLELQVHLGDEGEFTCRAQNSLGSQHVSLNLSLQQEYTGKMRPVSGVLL
Sequence of Human Siglec-9-Fc (recombinant human Siglec-9 extracellular domain Q18-G348 fused to human IgG1 Fc) (human) (chain, as listed by the source limits assumed): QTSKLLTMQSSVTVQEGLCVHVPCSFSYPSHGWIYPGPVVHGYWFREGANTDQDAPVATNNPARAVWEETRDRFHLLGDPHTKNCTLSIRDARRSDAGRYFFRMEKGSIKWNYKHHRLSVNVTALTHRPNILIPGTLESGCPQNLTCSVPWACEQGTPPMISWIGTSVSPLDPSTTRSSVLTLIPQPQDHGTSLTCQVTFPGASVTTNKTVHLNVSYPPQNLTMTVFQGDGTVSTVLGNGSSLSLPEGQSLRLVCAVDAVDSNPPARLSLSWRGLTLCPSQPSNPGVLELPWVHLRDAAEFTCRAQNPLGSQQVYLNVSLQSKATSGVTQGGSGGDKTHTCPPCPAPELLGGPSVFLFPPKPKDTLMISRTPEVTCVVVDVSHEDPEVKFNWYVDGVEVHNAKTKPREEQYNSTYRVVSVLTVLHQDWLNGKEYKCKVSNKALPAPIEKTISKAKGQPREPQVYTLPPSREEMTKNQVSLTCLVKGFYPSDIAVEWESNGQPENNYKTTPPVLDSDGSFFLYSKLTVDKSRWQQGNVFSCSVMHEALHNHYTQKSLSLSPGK

| Binder | binding result [1] | binding result [2] | Kd [3] | Kd [4] | Kd [5] | binding result [6] |
| --- | --- | --- | --- | --- | --- | --- |
| B1 | no binding (tested: analyte titrated from 100 nM to 1.56 nM) | no binding (tested: analyte titrated from 100 nM to 1.56 nM) | 2.6 pM | – | – | – |
| B2 | no binding (tested: analyte titrated from 100 nM to 1.56 nM) | no binding (tested: analyte titrated from 100 nM to 1.56 nM) | 4.4 pM | – | – | – |
| B3 | – | – | 2.1 pM | 6.8 pM | 20000 pM | – |
| B4 | – | – | – | – | – | binds |
